The source of these data is patent US20110229491A1 (published 2011).

The target of the assay is T1, MCM5:YFPC fusion protein (Arabidopsis, UniProt O80786 1-727).
T1 construct: BiFC construct expressed in tobacco leaf epidermal cells; not shown: YFPC: fragment with amino acid residues 155-238 of YFP (plasmid pUC-SPYCE)
T1 sequence (looked up): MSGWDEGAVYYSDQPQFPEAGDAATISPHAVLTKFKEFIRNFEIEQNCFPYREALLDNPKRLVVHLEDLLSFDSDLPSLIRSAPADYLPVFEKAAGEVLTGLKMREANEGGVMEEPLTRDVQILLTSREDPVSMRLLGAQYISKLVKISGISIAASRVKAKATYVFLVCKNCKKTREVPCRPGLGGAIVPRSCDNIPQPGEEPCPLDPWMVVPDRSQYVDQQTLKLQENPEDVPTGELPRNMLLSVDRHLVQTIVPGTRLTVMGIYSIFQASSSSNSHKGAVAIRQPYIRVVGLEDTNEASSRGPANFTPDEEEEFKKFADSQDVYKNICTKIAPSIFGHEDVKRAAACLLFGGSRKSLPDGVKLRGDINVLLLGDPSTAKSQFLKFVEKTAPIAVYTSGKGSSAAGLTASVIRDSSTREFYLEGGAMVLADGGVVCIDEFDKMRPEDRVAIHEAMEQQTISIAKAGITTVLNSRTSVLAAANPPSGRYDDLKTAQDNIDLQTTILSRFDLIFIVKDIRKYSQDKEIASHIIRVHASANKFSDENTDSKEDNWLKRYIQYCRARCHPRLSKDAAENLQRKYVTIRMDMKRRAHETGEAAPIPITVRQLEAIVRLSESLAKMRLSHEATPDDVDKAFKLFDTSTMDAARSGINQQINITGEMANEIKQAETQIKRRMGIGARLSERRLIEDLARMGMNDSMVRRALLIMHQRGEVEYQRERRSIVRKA
Description: BiFC in tobacco leaf epidermal cells. As to the method:
Full-length open reading frames of ETG1 and MCM5 were transferred into the pH7FWG2 destination vector (Karimi et al., 2002) by LR recombination reaction, resulting in ETG1:EGFP and MCM5:EYFP fusion proteins, respectively. BiFC assay was performed as described by Walter et al. (2004). The coding region of ETG1 was amplified with 5′-[…]-3′ (SEQ ID NO:28) and 5′-[…]-3′ (SEQ ID NO:29) primers, and cloned via BamHI-XhoI into the plasmid pUC-SPYNE (Walter et al., 2004), resulting in the plasmid expressed as the ETG1:YFPN fusion protein; the coding region of MCM5 was also obtained with 5′-[…]-3′ (SEQ ID NO:30) and 5′-[…]-3′ (SEQ ID NO:31) primers, and cloned via SpeI-SalI into the plasmid pUC-SPYCE (Walter et al., 2004) to give rise to the plasmid expressed as the MCM5:YFPC fusion protein.
The Agrobacterium strains containing both BiFC constructs were co-infiltrated into tobacco leaves. Epidermal cell layer of tobacco leaves were assayed for fluorescence using confocal laser scanning microscope (Zeiss) two to four days after infiltration. […] As expected, no fluorescence was detected when any combination with empty vectors was introduced into tobacco cells (FIG. 5, Panel C; ETG1-YFPN and YFPC, YFPN and MCM5-YFPC).

B1: ETG1:YFPN fusion protein (other, UniProt Q501D5 1-589, looked up)
chain: MGGPAYDCLTNPLGAVRFSFVNALSSGYDPASSVGKDWGVVDLFRHYFSDESAISQVPILDSSSIKWVQPKTLVRFRGMIQDMLGNEFYAGAYKDDSTWRTNKYSDVSQFPEGSSTEIQVWERRLLYCVPVPGKNQWTECSSQELKNRFLDLTGQNREKRVRVDEEMTDSMDSSTLEAGRNGSPFKKMKVGEATSSASESQVPQTSGIPPATSADSLPCLVKIYDSPESDLKLNDVVEFLGVLTFDPIVMMDTDTLDENSDALSEAESVQMPSGKVPRLHCLIHRKLETQHFLHGSSLLPEPKSPQIFKEIRESLMKYLTGLLGNDHIAAQFLLLHLLSKVHGRVDNVAVGKLSLNLIHLNKESMSIFGTQLSGALKSLLPFTQSIPLTIEYLNTASFGPKKDYGINRLMPGVLQIADGTHLILDETELQPGTLNSVGVENANLLKNLLECQKVEYDFQYYKMEMATDVQMLIFSEGKSNIMPADLVLPLQPSQVNSLEVITPETAETWRCYLATCKSLSHSIGQELQQVVENDLVAARQTDRSLGSQDLSRLLTMARMMSVSYGETTLSLEHWQMVLELERLRKERLK
notes: range 1-589;range 1-154; BiFC construct expressed in tobacco leaf epidermal cells; not shown: YFPN: fragment with amino acid residues 1-154 of YFP (plasmid pUC-SPYNE)
B1: the binding result is given as “binds”.
